Measured values: patent publication US5840867
Like-named read-outs stand apart in the source and are kept apart here.

How the values were obtained:
[1] = biological target: bradykinin (peptide, thiopropyl-derivatised on Sepharose for selection) (UniProt P01042); details: method not stated, cited from earlier work
ovalbumin = biological target: T1, ovalbumin (UniProt P01012); test: filter; details: 60 pmol ovalbumin; DNA alone 0.07%
T1 sequence: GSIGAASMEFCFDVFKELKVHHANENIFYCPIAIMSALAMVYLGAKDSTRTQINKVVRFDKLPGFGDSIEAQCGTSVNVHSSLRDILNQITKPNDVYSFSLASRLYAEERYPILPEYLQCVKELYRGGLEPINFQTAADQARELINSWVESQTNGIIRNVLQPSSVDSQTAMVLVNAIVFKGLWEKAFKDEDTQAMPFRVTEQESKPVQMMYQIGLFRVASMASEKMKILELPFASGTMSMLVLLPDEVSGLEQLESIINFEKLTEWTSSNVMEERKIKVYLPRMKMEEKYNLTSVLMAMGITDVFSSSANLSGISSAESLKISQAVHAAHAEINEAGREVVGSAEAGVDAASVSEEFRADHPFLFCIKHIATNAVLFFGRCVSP

thrombin = thrombin (Homo sapiens?) (UniProt P00734+P00734); test: filter

Sequence of bradykinin (peptide, thiopropyl-derivatised on Sepharose for selection) (P01042 whole entry, looked up, tested part not stated): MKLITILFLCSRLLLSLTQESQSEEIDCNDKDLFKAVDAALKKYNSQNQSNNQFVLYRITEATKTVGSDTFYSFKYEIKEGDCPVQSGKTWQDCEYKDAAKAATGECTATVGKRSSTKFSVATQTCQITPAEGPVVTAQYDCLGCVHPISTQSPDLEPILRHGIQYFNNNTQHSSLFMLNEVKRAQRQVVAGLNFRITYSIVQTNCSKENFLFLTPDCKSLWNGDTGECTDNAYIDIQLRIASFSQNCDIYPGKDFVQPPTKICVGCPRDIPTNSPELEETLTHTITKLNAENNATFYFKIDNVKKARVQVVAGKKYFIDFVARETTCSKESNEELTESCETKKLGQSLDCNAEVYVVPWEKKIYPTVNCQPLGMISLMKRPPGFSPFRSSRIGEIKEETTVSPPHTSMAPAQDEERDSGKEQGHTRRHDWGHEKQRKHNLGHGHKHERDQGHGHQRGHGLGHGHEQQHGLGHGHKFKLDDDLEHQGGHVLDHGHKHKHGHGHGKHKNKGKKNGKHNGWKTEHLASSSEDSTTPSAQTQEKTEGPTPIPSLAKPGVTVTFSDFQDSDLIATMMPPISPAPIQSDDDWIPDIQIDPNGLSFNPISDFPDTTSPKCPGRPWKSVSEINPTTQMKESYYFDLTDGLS

Sequence: CGTACGGTCGACGCTAGCNNNNNNNNNNNNNNNNNNNNNNNNNNNNNNNNNNNNNNNNNNNNNNNNNNNNNNNNNNNNCACGTGGAGCTCGGATCC [Round 5 bradykinin aptamer pool]
- Kd ([1]; pool): 50 µM

Sequence: CGTACGGTCGACGCTAGCNNNNNNNNNNNNNNNNNNNNNNNNNNNNNNNNNNNNNNNNNNNNNNNNNNNNNNNNNNNNCACGTGGAGCTCGGATCC [Round 5 thrombin aptamer pool (96-mer)]
- binding signal (ovalbumin): 0.05 % DNA bound
- binding signal (thrombin; 60 pmol thrombin, 3.5 pmol DNA in 200 uL selection buffer, RT 1 h, DNA alone 0.07%): 20.4 % DNA bound

Sequence: CGTACGGTCGACGCTAGCNNNNNNNNNNNNNNNNNNNNNNNNNNNNNNNNNNNNNNNNNNNNNNNNNNNNNNNNNNNNCACGTGGAGCTCGGATCC [unselected 96-mer pool]
- binding signal (thrombin; unselected DNA, DNA alone 0.08%): 0.06 % DNA bound
- Kd ([1]; unselected DNA): > 1000 µM
